Paper PMC12494564, “CLIC5A binds to and stabilizes the open and active conformation of ezrin” (The Journal of Biological Chemistry, 2025)

Biological target: GST-His6x-CLIC5A (human, UniProt Q9NZA1-2 1-251, fluorescent label from the Monolith His-Tag Labeling Kit RED-tris-nitriloacetic acid)
Experiment: MST; 100 nM fluorescently labeled (RED-tris-NTA) GST-His6x-CLIC5A or GST-His6x, unlabeled ezrin_(482-586) from 412 μM to 12.6 nM in the labeling buffer; Monolith NT.115, ambient temperature, 40% MST power, 30% LED power
Settings: both partners purified

Sequence of GST-His6x-CLIC5A (Q9NZA1 other isoform, or with tags, fused parts or gaps): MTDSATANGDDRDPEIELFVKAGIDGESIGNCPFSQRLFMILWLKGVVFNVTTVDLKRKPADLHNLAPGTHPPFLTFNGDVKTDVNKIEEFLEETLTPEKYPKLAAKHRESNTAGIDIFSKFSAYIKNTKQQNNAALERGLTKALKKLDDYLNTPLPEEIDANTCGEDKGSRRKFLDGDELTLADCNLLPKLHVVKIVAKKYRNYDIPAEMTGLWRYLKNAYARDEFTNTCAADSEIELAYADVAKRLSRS

Kd: 29 µM
B1: ezrin_(482-586) (H549N/T567E) (domain or fragment, human, UniProt P15311 482-586, looked up)
chain: SYHVQESLQDEGAEPTGYSAELSSEGIRDDRNEEKRITEAEKNERVQRQLLTLSSELSQARDENKRTNNDIIHNENMRQGRDKYKELRQIRQGNTKQRIDEFEAL
notes: ezrin, human; Expression plasmid created by ATUM; not shown: PagP, N-terminal, cleaved
